Data set [1] in a line: anti-HA immunoblot of total lysate. To be noted: glycan lost; control: wild type Rim21. On the technique in general: In western blotting, separated proteins are transferred to a membrane and probed.
Data set [2] is described as follows: cycloheximide chase, immunoblot, ± alkali. The settings on record: glycan lost; control: wild type Rim21.
Data set [3] in a line: stepwise centrifugation P13/P100/S100, immunoblot. The settings on record: glycan lost; control: wild type Rim21-HA.
A short description of data set [4]: GFP fluorescence microscopy with mRFP-Snc1(pm) marker. The settings on record: glycan lost; control: wild type Rim21-2GFP.

B1: Rim21: N15Q (protein)
parent chain: MNLWRHSPEELAAYNSCHPMKLGSGVLIQLPLYDNSAVYAEDITFRSFCCERVPVYVSTVLRNSSPYRYLDEVINDWQKFIQVSDYVGGSAEYAIYAVILSITSNFVITVFLTVICCINISGRAYKRILQLLRIASLLASLNLTIFITKVLRRLEKEHNVYGVVRAHSIMHIFSDDMTFVVLDFLATLMFQFCQVGIVIRLFQRAQEKRIIFFIGVILTITANILWVIPPFANHTTKHRNDWQILRPFVYLFRIAIATSYASIVIYHIWQKKKLWFKFNQMGLLTLLTILVVLLLPGFFLADVSNLWISELGEVFNTTCYVTSTVITWEWLDRLNVLERKEEAQSILGRPIFEEEQQDYRFAKYALRVQNALTRRESQDASTDRHDTSSNSEVCDLQTISRYDPEDQISVGRSIDRMHFNDRGTYKDVALKKLGYARDKILYFTDQIVQKSVGHNNSSSSKNEKTKQRKAMVRKRLGLDKPGIYIYSTKDVVFNSDEDDDENAEDEDDDEYEVGSEGNNNSSATFTSDHIGHI
On to B1, for which the expression_or_secretion entry in data set [1] is “increases”. Also, the degradation_or_half_life entry in data set [2] was “increases”. Besides, the localisation_or_trafficking entry is on record as “changes” in data set [3] and “no change” in data set [4].

These data come from PMC10739146.
